The text below walks through data of patent US20200393470A1 (Regeneron, published 2020).

The target in test [1] is T1, human ANGPTL8 (human, UniProt Q6UXH0 22-198).
T1 construct: also called hANGPTL8; Angiopoietin-like protein 8
T1 sequence: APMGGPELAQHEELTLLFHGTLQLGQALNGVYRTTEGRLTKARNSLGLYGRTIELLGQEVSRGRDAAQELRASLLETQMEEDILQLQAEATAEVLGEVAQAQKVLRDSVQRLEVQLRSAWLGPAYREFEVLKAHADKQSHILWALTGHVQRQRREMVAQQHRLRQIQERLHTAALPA
In words: sandwich ELISA on ex vivo serum samples. As to the method: (§1) Proteins and mAbs stored at −80° C. were thawed and kept on ice, as they were needed. The wells of the ELISA plate were coated with capture mAb, at a concentration of 4 μg/mL in PBS, and a volume of 100 μL/well. The plate was covered with a plate sealer, and stored at 4° C. overnight (approximately 18 hours). The wells of the plate were then washed with 350 μL/well wash buffer (0.1% Tween-20 in PBS), for a total of 3 washes, using an automated plate washer. Excess wash remnants were removed by inverting and tapping the plate against clean paper towels. Blocking buffer (1% Fraction V BSA in PBS) was added at 300 μL/well. The plate was covered with a plate sealer, and placed on a plate shaker at room temperature, shaking at 300 rpm for a minimum of 1 hour.
(§2) After the blocking period, the wells of the ELISA plate were washed again, and excess wash remnants were removed, as previously described. The standards and the diluted samples were added to the plate in duplicate, with 100 μL/well. The plate was covered with a plate sealer and placed on a plate shaker at room temperature, shaking at 500 rpm for 2 hours. The wells of the ELISA plate were washed again, and excess wash remnants were removed, as previously described. The detection mAb was added at a concentration of 400 ng/mL in assay diluent (1% Fraction V BSA/0.1% Tween-20 in PBS), with 150 μL/well. […]
For orientation: ELISA stands for enzyme-linked immunosorbent assay.

For test [2], the target named is T2, human ANGPTL8 dimer protein with mouse Fc tag (human, UniProt Q6UXH0 22-198).
T2 construct: also called hANGPTL8.mFc; dimer form of human ANGPTL8; not shown: mouse Fc tag
T2 sequence: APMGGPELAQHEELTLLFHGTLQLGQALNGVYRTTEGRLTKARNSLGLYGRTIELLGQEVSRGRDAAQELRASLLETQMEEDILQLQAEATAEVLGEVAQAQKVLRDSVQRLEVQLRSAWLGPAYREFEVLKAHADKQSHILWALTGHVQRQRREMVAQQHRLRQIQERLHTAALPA
In words: sandwich ELISA, capture mAb, dimer (mFc) standard. The method, then:
as §1, §2

Test [3] has as its target T1, human ANGPTL8. Description: immunoprecipitation from cell conditioned media, Western blot. The method, then: The selection process involved performing a series of immunoprecipitations (IPs), in which each mAb was incubated with cell conditioned media (CM) containing the human ANGPTL8 protein. A resin that identifies human IgG4 was then applied to the mAb/CM mixtures. The resin beads targeted the mAbs, binding the mAb-human ANGPTL8 complex. A series of Western blots probing for human ANGPTL8 were run on the various fractions of the IPs, and anti-human ANGPTL8 mAbs were selected based on high human ANGPTL8 expression in the IP fractions, with low human ANGPTL8 expression in the unbound fractions.
(Immunoblotting shows a protein as a band on a membrane.)

The target of test [4] is T2, human ANGPTL8 dimer protein with mouse …. Description: sandwich ELISA, biotinylated detection mAb, dimer (mFc) standard. The method, then:
as §1, §2

B1: H4H15361P2 (antibody, human IgG4, V domains shown)
VH: EVQLVESGGGLVQPGRSLRLSCTASGFSFGDNAMGWVRQAPGKGLEWVSFIRRKASGGTTEYAASVKGRFTISRDDSKSIAYLQMNSLKTEDTGVYYCTRGGAVYGYWGQGTLVTVSS
VL: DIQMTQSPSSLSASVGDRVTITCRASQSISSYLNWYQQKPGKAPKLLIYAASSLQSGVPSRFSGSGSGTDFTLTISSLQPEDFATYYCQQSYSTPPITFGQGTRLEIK
notes: also called anti-human C19orf80 (ANGPTL8) (H4H15361P2); biotinylated-H4H15361P2
With B1, the binding result in test [1] and in test [2] was “binds” throughout.

B2: H4H15347P (antibody, human IgG4, V domains shown)
VH: EVQLVESGGGLVQPGGSLRLSCAASGFTFRNYAMNWARQAPGKGLEWVSGITGSGGATYYADSVKGRFTISRENSKNTLFLQMDTLRAEDTAVYYCAKDRRYFPTSGGPQWGQGTLVTVSS
VL: DIVMTQSPLSLPVTPGEPASISCRSSRSLLHSSGYNYLDWYLQKPGQSPQLLLYLGSNRASGVPDRFSGSGSGTYFTLKISRVDAEDVGVYYCMQALQTPWTFGQGTKVEIK
notes: Capture mAb of the final ELISA; also called anti-human C19orf80 (ANGPTL8) (H4H15347P); biotinylated-H4H15347P
Take B2: the binding result in test [1] and in test [2] was “binds” each time.

B3: H4H15341P (antibody, human IgG4, V domains shown)
VH: EVQLVESGGGLVQPGGSLRLSCAASGFTFNNHEMNWVRQAPGKGLEWVSYISSSGNTVTYADFLKGRFTISRDNAKNSLFLQMNSLRDEDTAVYYCARDHLSGTSPLSYWGQGTLVTVSS
VL: DIQMTQSPSSLSASVGDRVTITCQASQDINNYLNWFQQKPGKAPKLLIFDASNLETGVPSRFSGSGSGTDFTFTISSLQPEDIATYFCQQYENLPYTFGQGTKLEIK
notes: also called biotinylated-H4H15341P
For B3, the binding result in test [3] is recorded as “binds”.

B4: H4H15318P (antibody, V domains shown)
VH: QVQLVESGGGVVQPGRSLRLSCTASGFTFGNFGIHWVRQAPGKGLEWVAVISYDGTDKFYADPVKGRFIISRDNSMNILYLQMNSLRAEDTAVYYCAKDGEMELRGYYYYYGMDVWGQGTTVTVSS
VL: DIQMTQSPSSVSASVGDRVTITCRASQGINTWLAWYQQKPGTAPKLLIFAASSLESGVPSRFSGSGFGTDFTLTISSLQSEDLATYFCQQVHSPPYTFGQGTKLEIK
notes: Used unlabelled in the immunoprecipitation and as capture mAb, and biotinylated as detection mAb in the sandwich ELISA; also called biotin-H4H15318P; biotinylated anti-human C19orf80 (ANGPTL8) (biotin-H4H15318P)
B4: the binding result in test [4] and in test [3] was “binds” in each case.
